Where no end group is shown, it is not given here.
Biological target: T1, human L3MBTL1 R467C mutant containing 3 MBT repeats (residues 200-522, 3MBT) (human)
T1 construct: also called L3MBTL1 Arg467Cys mutant; source: expressed and purified as previously described [20]
Experiment: ITC; L3MBTL1 R467C mutant titrated with H4K20me2; data not shown
Details: both partners purified

stoichiometry N: 1
Binder: RHRK(dimethyl)VLRDN [H4K20me2 peptide (used for co-crystallisation and ITC with L3MBTL1 R467C)]

From publication PMC2747274, “Structural Studies of a Four-MBT Repeat Protein MBTD1” (PLoS ONE, 2009)
